Experimental findings from patent US20190031771A1 (University of Pennsylvania, published 2019) are described below.

Numbering of substitutions follows the chain as printed.

T1: human ADAMTS13 (human, UniProt Q76LX8 75-1427)
T1 sequence (looked up): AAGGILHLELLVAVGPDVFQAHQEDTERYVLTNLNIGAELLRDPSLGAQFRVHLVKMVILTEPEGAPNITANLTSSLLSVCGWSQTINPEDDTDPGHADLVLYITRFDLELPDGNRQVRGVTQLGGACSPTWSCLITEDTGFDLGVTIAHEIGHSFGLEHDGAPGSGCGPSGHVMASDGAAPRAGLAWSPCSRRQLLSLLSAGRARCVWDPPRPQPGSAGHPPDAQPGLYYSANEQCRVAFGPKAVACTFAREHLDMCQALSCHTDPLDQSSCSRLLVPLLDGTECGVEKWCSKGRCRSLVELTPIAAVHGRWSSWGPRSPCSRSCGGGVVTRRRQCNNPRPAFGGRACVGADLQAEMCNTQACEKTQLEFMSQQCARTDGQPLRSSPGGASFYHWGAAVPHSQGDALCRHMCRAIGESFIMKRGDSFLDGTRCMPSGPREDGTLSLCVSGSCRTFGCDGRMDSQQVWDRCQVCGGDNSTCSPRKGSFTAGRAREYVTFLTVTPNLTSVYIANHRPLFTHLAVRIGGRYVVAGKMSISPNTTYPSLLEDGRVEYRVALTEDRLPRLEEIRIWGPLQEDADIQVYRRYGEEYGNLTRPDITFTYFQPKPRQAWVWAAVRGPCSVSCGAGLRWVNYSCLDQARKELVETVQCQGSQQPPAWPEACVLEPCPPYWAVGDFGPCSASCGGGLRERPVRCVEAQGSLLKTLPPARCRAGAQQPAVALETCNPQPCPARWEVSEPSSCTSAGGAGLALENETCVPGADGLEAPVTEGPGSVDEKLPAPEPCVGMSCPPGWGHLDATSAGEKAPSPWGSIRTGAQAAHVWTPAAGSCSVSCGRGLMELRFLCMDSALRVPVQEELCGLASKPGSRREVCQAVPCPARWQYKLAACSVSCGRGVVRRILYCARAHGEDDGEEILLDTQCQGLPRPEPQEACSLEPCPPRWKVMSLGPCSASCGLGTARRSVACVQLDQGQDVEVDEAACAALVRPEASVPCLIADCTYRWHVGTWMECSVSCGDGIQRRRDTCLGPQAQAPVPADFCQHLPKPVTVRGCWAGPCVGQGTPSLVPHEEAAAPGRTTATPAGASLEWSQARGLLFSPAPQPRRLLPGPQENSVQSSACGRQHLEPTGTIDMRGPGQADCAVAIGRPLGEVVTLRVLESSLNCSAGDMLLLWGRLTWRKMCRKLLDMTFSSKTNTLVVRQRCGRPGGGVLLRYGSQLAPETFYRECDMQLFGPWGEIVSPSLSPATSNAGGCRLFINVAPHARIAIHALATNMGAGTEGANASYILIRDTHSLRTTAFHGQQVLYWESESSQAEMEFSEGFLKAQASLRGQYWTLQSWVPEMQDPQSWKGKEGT

B1: scFv 1-416 (scFv, V domains shown)
VH: QVQLVQSGAEVKKPGSSVRVSCTASGSNFSSHTINWVRQAPGQGLEWMGKVIPVLDISKHAQTFLGRVIITADKSTSTAYLELSSLRSEDTAIYYCAMDSVYGNFDFWGQGTLVTVSS
VL: ELVLTQPPSVSVSPGQTARITCSGDAFPKHYAYWYQQKPGQAPVLVIYKDTERPSGIPERFSGSSSGTTATLTISGVQAEDEADYYCQSTDSSDTWVFGAGTKVTVL
B2: scFv 1-428 (scFv, V domains shown)
VH: B1 VH with Q1E, R19K, T23K, Q43H, V51I, H60D, Q62E, I69V, L81M
VL: ELELTQPPSVSVSPGQTARITCSGDALPKQYAYWYQQKPGQAPVLVIYKDSERPSGIPERFSGSSSGTTVTLTISGVQAEDEADYYCQSADSSGTYEVFGGGTKLTVL
B3: scFv 1-431 (scFv, V domains shown)
VH: QVQLVQSGAEVKKFGSSVKVSCKASGGTFSSYTMSWVRQAPGQGLEWMGSFVPILERANYAQGFQGRVTFTADKSTSTAYMELGSLRSEDTAVYYCARDLGDFGDSWGQGTLVTVSS
VL: B1 VL with V3E, F27L, H30Q, T51S, A70V, T90A, D94G, W96Y, A100G, V104L
B4: scFv 1-420 (scFv, V domains shown)
VH: QVQLVQSGAEVKKPGSSVKVSCKASGGAFTMYTINWVRQAPGRGLEWMGRIIPILGITDYAQKFQGRGTITADKSTSTAYLELSGLTSEDTAVYYCAREFSGGNYFDFWGQGTLVTVSS
VL: ELELTQPPSVSISPGKTAKIFCGGNSIGRKSVHWYQQKPGQAPVLVVYDDSDRPSGIPERFSGSNSGNTATLTISRVEAGDEADYYCQVWDSSSDYVVFGGGTKLTVL

The target in one assay is T1, human ADAMTS13. Briefly: cell-based or functional assay.
In the case of B1, the “% ADAMTS13 activity in presence of scFv inhibitor (no rabbit IgG)” value was found to be 20%.

For the molecule B2, the “% ADAMTS13 activity in presence of scFv inhibitor (no rabbit IgG)” value turned out to be 7%.

Consider B3, for which the “% ADAMTS13 activity in presence of scFv inhibitor (no rabbit IgG)” value was 19%.

Regarding B4, the “% ADAMTS13 activity in presence of scFv inhibitor (no rabbit IgG)” value was determined as 0%.

The target of the next assay is T2, hemagglutinin ectodomain of influenza virus H1/PR/8/34 (influenza virus H1/PR/8/34, UniProt P03452 18-528).
T2 construct: extracellular domain; also called HA H1/PR/8/34
T2 sequence (P03452 18-528): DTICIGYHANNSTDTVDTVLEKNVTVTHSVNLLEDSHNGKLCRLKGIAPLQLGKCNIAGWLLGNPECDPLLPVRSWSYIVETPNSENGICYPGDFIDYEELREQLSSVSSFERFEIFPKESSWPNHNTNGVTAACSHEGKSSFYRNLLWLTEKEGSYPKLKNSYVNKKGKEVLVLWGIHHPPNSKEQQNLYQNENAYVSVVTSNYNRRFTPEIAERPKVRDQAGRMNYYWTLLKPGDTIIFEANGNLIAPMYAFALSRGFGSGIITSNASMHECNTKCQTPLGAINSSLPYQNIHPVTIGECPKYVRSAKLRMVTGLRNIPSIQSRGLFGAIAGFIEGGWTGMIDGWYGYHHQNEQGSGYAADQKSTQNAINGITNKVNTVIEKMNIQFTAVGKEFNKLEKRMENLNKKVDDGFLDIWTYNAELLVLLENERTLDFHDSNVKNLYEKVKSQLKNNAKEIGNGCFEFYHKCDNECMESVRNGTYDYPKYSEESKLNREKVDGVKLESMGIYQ
Description: immunoassay or flow cytometry.
For B1, the binding result is recorded as “no binding”.

With B2, the binding result was “no binding”.

As for B3, the binding result is “no binding”.

In the case of B4, the binding result was “no binding”.
